B1: mRNA-splicing (parent)
chain: AGUUGCUGCUGGGAGCUCCAGCACAGUGAAAUGGACAGAAGGGCAGAGCAA

The data set covers variants of B1. Briefly: exon inclusion enrichment index; higher = more inclusion; WT1 exon 5 minigene, HEK293.
On to AGUUGAAGAAGGGAGCUACAGCACAGUGAAAUGGACAGAAGGGCAGAGCAA, for which the “exon inclusion enrichment index” value stood at 0.411.
The figure for AGUUGAAGAAGGGAGCUGCAGCACAGUGAAAUGGACAGAAGGGCAGAGCAA is 0.561; for AGUUGAAGAAGGGAGCUUCAGCACAGUGAAAUGGACAGAAGGGCAGAGCAA it is 0.387; for AGUUGAAGAAGGGAGCUAUAGCACAGUGAAAUGGACAGAAGGGCAGAGCAA it is 0.0166.
Turning to AGUUGAAGAAGGGAGCUAAAGCACAGUGAAAUGGACAGAAGGGCAGAGCAA, the “exon inclusion enrichment index” value amounted to 0.0959.
Then AGUUGAAGAAGGGAGCUAGAGCACAGUGAAAUGGACAGAAGGGCAGAGCAA, with 0.0285; and AGUUGAAGAAGGGAGCUCCAGCACAGUGAAAUGGUCAGAAGGGCAGAGCAA, with 0.119; and AGUUGAAGAAGGGAGCUCACGCACAGUGAAAUGGACAGAAGGGCAGAGCAA, with 0.41.
The figure for AGUUGAAGAAGGGAGCUCAUGCACAGUGAAAUGGACAGAAGGGCAGAGCAA is 0.195; for AGUUGAAGAAGGGAGCUCAGGCACAGUGAAAUGGACAGAAGGGCAGAGCAA it is 0.0532.
Then AGUUGAAGAAGGGAGCUCCAGAACAGUGAAAUGGACAGAAGGGCAGAGCAA, with 0.593; and AGUUGAAGAAGGGAGCUCCAGCACAGUGAAAUGGACAGUCGGGCAGAGCAA, with 1.19; and AGUUGAAGAAGGGAGCUCCAGCACAGUGAAAUGGACAGUUGGGCAGAGCAA, with 0.184.
For AGUUGAAGAAGGGAGCUCCAGCACAGUGAAAUGGACAGUGGGGCAGAGCAA, the “exon inclusion enrichment index” value was found to be 0.0729.
AGUUGAAGAAGGGAGAACCAGCACAGUGAAAUGGACAGAAGGGCAGAGCAA: the “exon inclusion enrichment index” value came out at 0.501.
Then AGUUGAAGAAGGGAGAGCCAGCACAGUGAAAUGGACAGAAGGGCAGAGCAA, with 0.312.
Then AGUUGAAGAAGGGAGACCCAGCACAGUGAAAUGGACAGAAGGGCAGAGCAA, with 0.47; and AGUUGAAGAAGGGAGCUCCAGCACAGUGAAAUGGACAGAUUGGCAGAGCAA, with 0.373; and AGUUGAAGAAGGGAGCUCCAGCACAGUGAAAUGGACAGAUAGGCAGAGCAA, with 0.0256.
Then AGUUGAAGAAGGGAGCUCCAGCACAGUGAAAUGGACAGAUCGGCAGAGCAA, with 1.33; and AGUUGAAGAAGGGAGCUCCAGCACAGUGAAAUGGACAGAAGGGCAGUCCAA, with 0.497.
As for AGUUGAAGAAGGGAGCUCCAGCACAGUGAAAUGGACAGAAGGGCAGUUCAA, the “exon inclusion enrichment index” value came to 0.748.
The figure for AGUUGAAGAAGGGAGCUCCAGCACAGUGAAAUGGACAGAAGGGCAGUACAA is 0.579.
The figure for AGUUGAAGAAGGGAGCUCCAGCACAGUGAAAUGGACAGAAGGGCAGCCCAA is 0.797.
As for AGUUGAAGAAGGGAGCUCCAGCACAGUGAAAUGGACAGAAGGGCAGCACAA, the “exon inclusion enrichment index” value came to 0.547.
The figure for AGUUGAAGAAGGGAGCUCCAGCACAGUGAAAUGGACAGAAGGGCAGCUCAA is 0.811; for AGUUGAAGAAGGGAGCUCCAGCACAGUGAAAUGGACUCAAGGGCAGAGCAA it is 0.667; for AGUUGAAGAAGGGAGCUCCAGCACAGUGAAAUGGACUAAAGGGCAGAGCAA it is 0.258.
Then AGUUGAAGAAGGGAGCUCCAGCACAGUGAAAUGGACUUAAGGGCAGAGCAA, with 0.112.
Then AGUUGAAGAAGGGAGCUCCAGCACAGUGAAAUGGACCCAAGGGCAGAGCAA, with 0.896.
As to AGUUGAAGAAGGGAGCUCCAGCACAGUGAAAUGGACCUAAGGGCAGAGCAA, the “exon inclusion enrichment index” value turned out to be 0.426.
For AGUUGAAGAAGGGAGCUCCAGCACAGUGAAAUGGACCAAAGGGCAGAGCAA, the “exon inclusion enrichment index” value stood at 0.719.
The figure for AGUUGAAGAAGGGAGCUCCAGCACAGUGAAAUGGACAGCCGGGCAGAGCAA is 1.65.
Then AGUUGAAGAAGGGAGCUCCAGCACAGUGAAAUGGACAGCUGGGCAGAGCAA, with 0.533; and AGUUGAAGAAGGGAGCUCCAGCACAGUGAAAUGGACAGCGGGGCAGAGCAA, with 0.849; and AGUUGAAGAAGGGAGCUCCAGCACAGUGAAAUGGACAGAAGGGCCGAGCAA, with 0.979.
Then AGUUGAAGAAGGGAGCUCCAGCACAGUGAAAUGGACAGAAGGGCUGAGCAA, with 1.14; and AGUUGAAGAAGGGAGCUCCAGCACAGUGAAAUGGACAGAAGGGCGGAGCAA, with 1.6; and AGUUGAAGAAGGGAGCUCAAGCACAGUGAAAUGGACAGAAGGGCAGAGCAA, with 0.348.
Take AGUUGAAGAAGGGAGCUCUAGCACAGUGAAAUGGACAGAAGGGCAGAGCAA: the “exon inclusion enrichment index” value was determined as 0.0565.
Then AGUUGAAGAAGGGAGCUCGAGCACAGUGAAAUGGACAGAAGGGCAGAGCAA, with 0.576; and AGUUGAAGAAGGGAGCUCCAGCACAGUGAAAUGGACUGAAGGGCAGAGCAA, with 0.746.
For the variant AGUUGAAGAAGGGAGCUCCAGCACAGUGAAAUGGACGGAAGGGCAGAGCAA, the “exon inclusion enrichment index” value amounted to 1.54.
For the variant AGUUGAAGAAGGGAGCUCCAGCACAGUGAAAUGGACCGAAGGGCAGAGCAA, the “exon inclusion enrichment index” value was 1.72.
Then AGUUGAAGAAGGGAGCUCGGGCACAGUGAAAUGGACAGAAGGGCAGAGCAA, with 0.289.
Then AGUUGAAGAAGGGAGCUCGCGCACAGUGAAAUGGACAGAAGGGCAGAGCAA, with 1.03; and AGUUGAAGAAGGGAGCUCGUGCACAGUGAAAUGGACAGAAGGGCAGAGCAA, with 0.62.
The figure for AGUUGAAGAAGGGAGCUCCAGCACAGUGAAAUGGACAGAUGGGCAGAGCAA is 0.579; for AGUUGAAGAAGGGAGCUCCAGCACAGUGAAAUGGACAGACGGGCAGAGCAA it is 1.8; for AGUUGAAGAAGGGAGCUCCAGCACAGUGAAAUGGACAGAGGGGCAGAGCAA it is 0.737.
For AGUUGAAGAAGGGAGCUCCAGCACAGUGAAAUGGACAGGUGGGCAGAGCAA, the “exon inclusion enrichment index” value came to 0.0506.

Source of the values: the RNAGym collection of RNA variant scans (doi:10.1101/gr.219683.116).
